According to publication PMC6811359:

How the values were obtained:
[1] = target: PAL, light-oxygen-voltage (LOV) receptor from Nakamurella multipartita (Nakamurella multipartita); assay: SEC-MALS
[2] = target: PAL, light-oxygen-voltage (LOV) receptor from Nakamurella multipartita (Nakamurella multipartita); assay: SEC
[3] = target: isolated LOV domain of PAL (Nakamurella multipartita); assay: SEC-MALS
[4] = target: isolated LOV domain of PAL (Nakamurella multipartita); assay: SEC

Substance | stoichiometry N [1] | stoichiometry N [2] | stoichiometry N [3] | stoichiometry N [4]
PAL, light-oxygen-voltage (LOV) receptor from Nakamurella multipartita (natural protein) | 2 | 2 |  | 
isolated LOV domain of PAL (domain or fragment) |  |  | 2 | 2
